Laboratory results published in US20060211627A1 (BURNHAM INSTITUTE, published 2006).
Square brackets hold non-standard residues; d marks the D form. Ends that are not written are not given here. 2Nal = N[C@@H](Cc1ccc2ccccc2c1)C(=O)O; d2Nal = N[C@H](Cc1ccc2ccccc2c1)C(=O)O; 2Thi = N[C@@H](Cc1cccs1)C(=O)O; Cha = N[C@@H](CC1CCCCC1)C(=O)O; d2Thi = N[C@H](Cc1cccs1)C(=O)O; dCha = N[C@H](CC1CCCCC1)C(=O)O

Molecular target: GST-BIR3RING (human) (UniProt P98170)
Experiment: fluorescence polarization competition; unlabeled SMAC 0 to 50 µM against 400 nM rhodamine-SMAC and 1 µM GST-BIR3RING

Sequence of GST-BIR3RING (human) (P98170 243-497): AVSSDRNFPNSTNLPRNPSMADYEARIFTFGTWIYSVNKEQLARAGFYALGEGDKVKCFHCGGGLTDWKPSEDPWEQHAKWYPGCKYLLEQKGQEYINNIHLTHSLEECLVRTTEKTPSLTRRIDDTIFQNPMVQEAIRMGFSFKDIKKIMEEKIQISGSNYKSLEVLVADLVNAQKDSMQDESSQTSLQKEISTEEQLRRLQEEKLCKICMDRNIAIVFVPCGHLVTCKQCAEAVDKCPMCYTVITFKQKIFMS

IC50 [µM] | Molecule
21 | unlabelled SMAC (peptide)

Molecular target: GST-XIAP (human, UniProt P98170 1-497)
Experiment: cell-based or functional assay

Sequence of GST-XIAP (P98170 whole entry): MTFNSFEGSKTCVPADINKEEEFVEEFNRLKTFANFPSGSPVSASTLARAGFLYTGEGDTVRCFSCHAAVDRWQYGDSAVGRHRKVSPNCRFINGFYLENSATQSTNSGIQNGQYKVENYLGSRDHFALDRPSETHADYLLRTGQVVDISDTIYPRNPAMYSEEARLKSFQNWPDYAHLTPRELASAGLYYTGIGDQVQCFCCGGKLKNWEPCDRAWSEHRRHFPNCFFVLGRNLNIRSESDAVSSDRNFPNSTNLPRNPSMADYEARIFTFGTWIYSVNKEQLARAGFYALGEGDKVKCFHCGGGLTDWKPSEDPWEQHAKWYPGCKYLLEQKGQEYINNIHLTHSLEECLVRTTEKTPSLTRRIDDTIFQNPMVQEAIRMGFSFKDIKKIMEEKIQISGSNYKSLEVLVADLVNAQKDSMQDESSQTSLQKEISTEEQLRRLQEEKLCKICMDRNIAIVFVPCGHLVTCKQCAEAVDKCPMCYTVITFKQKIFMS

ratio of Vmax with and without peptide, caspase derepression assay | Molecule
> 2.4 | AWW[2Thi] (also: some Trp may retain formyl protecting groups) [TPI 1332/1352-1]
> 2.4 | [2Nal][dCha]W[dW] [TPI 1352-66]
> 2.4 | [2Nal][d2Thi][dF][dW] [TPI 1352-72]
> 2.4 | A[dW]W[2Thi] [TPI 1352-6]
> 2.4 | [Cha][d2Nal]W[2Thi] [TPI 1332-41]
> 2.4 | A[dW]W[2Thi] [TPI 1332/1352-47]
